{"source": "the Human Domainome abundance scans (Beltran et al. 2025)", "parents": {"B1": {"name": "KAT8 regulatory NSL complex subunit 2, residues 28 to 91; numbered along this chain, Q9H9L4 (parent)", "chain": "CAFTHRPCSHPRLEGQEFCIKHILEDKNAPFKQCSYISTKNGKRCPNAAPKPEKKDGVSFCAEH"}}, "note": "± gives the uncertainty stated by the source."}
{"variants_of": "B1", "assay": "abundance fitness (aPCA) (normalised: wild type 0, dead -1); higher = more abundant; growth selection in yeast, the domain comes from the species named", "conditions": "Homo sapiens"}
{"variant": "CAFTHRPCSHPRLEGQEFCIKHILEDKNAPFKQCSYISTKNGKRCPNFAPKPEKKDGVSFCAEH", "note": "[A48F]", "abundance fitness": "-0.204 ± 0.075"}
{"variant": "CAFTHRPCSHPRLEGQEFCIKHILEDKNAPFKQCSYISTKNGKRCPNHAPKPEKKDGVSFCAEH", "note": "[A48H]", "abundance fitness": "-0.336 ± 0.19"}
{"variant": "CAFTHRPCSHPRLEGQEFCIKHILEDKNAPFKQCSYISTKNGKRCPNIAPKPEKKDGVSFCAEH", "note": "[A48I]", "abundance fitness": "-0.204 ± 0.065"}
{"variant": "CAFTHRPCSHPRLEGQEFCIKHILEDKNAPFKQCSYISTKNGKRCPNLAPKPEKKDGVSFCAEH", "note": "[A48L]", "abundance fitness": "-0.16 ± 0.046"}
{"variant": "CAFTHRPCSHPRLEGQEFCIKHILEDKNAPFKQCSYISTKNGKRCPNMAPKPEKKDGVSFCAEH", "note": "[A48M]", "abundance fitness": "-0.159 ± 0.053"}
{"variant": "CAFTHRPCSHPRLEGQEFCIKHILEDKNAPFKQCSYISTKNGKRCPNNAPKPEKKDGVSFCAEH", "note": "[A48N]", "abundance fitness": "-0.293 ± 0.098"}
{"variant": "CAFTHRPCSHPRLEGQEFCIKHILEDKNAPFKQCSYISTKNGKRCPNPAPKPEKKDGVSFCAEH", "note": "[A48P]", "abundance fitness": "-0.079 ± 0.054"}
{"variant": "CAFTHRPCSHPRLEGQEFCIKHILEDKNAPFKQCSYISTKNGKRCPNQAPKPEKKDGVSFCAEH", "note": "[A48Q]", "abundance fitness": "-0.238 ± 0.058"}
{"variant": "CAFTHRPCSHPRLEGQEFCIKHILEDKNAPFKQCSYISTKNGKRCPNRAPKPEKKDGVSFCAEH", "note": "[A48R]", "abundance fitness": "-0.166 ± 0.045"}
{"variant": "CAFTHRPCSHPRLEGQEFCIKHILEDKNAPFKQCSYISTKNGKRCPNSAPKPEKKDGVSFCAEH", "note": "[A48S]", "abundance fitness": "-0.168 ± 0.051"}
{"variant": "CAFTHRPCSHPRLEGQEFCIKHILEDKNAPFKQCSYISTKNGKRCPNVAPKPEKKDGVSFCAEH", "note": "[A48V]", "abundance fitness": "-0.178 ± 0.056"}
{"variant": "CAFTHRPCSHPRLEGQEFCIKHILEDKNAPFKQCSYISTKNGKRCPNWAPKPEKKDGVSFCAEH", "note": "[A48W]", "abundance fitness": "-0.333 ± 0.062"}
{"variant": "CAFTHRPCSHPRLEGQEFCIKHILEDKNAPFKQCSYISTKNGKRCPNYAPKPEKKDGVSFCAEH", "note": "[A48Y]", "abundance fitness": "-0.167 ± 0.086"}
{"variant": "CAFTHRPCSHPRLEGQEFCIKHILEDKNAPFKQCSYISTKNGKRCPNACPKPEKKDGVSFCAEH", "note": "[A49C]", "abundance fitness": "-0.148 ± 0.091"}
{"variant": "CAFTHRPCSHPRLEGQEFCIKHILEDKNAPFKQCSYISTKNGKRCPNADPKPEKKDGVSFCAEH", "note": "[A49D]", "abundance fitness": "-0.339 ± 0.13"}
{"variant": "CAFTHRPCSHPRLEGQEFCIKHILEDKNAPFKQCSYISTKNGKRCPNAEPKPEKKDGVSFCAEH", "note": "[A49E]", "abundance fitness": "-0.212 ± 0.17"}
{"variant": "CAFTHRPCSHPRLEGQEFCIKHILEDKNAPFKQCSYISTKNGKRCPNAFPKPEKKDGVSFCAEH", "note": "[A49F]", "abundance fitness": "-0.124 ± 0.071"}
{"variant": "CAFTHRPCSHPRLEGQEFCIKHILEDKNAPFKQCSYISTKNGKRCPNAGPKPEKKDGVSFCAEH", "note": "[A49G]", "abundance fitness": "-0.06 ± 0.057"}
{"variant": "CAFTHRPCSHPRLEGQEFCIKHILEDKNAPFKQCSYISTKNGKRCPNAHPKPEKKDGVSFCAEH", "note": "[A49H]", "abundance fitness": "-0.147 ± 0.11"}
{"variant": "CAFTHRPCSHPRLEGQEFCIKHILEDKNAPFKQCSYISTKNGKRCPNAIPKPEKKDGVSFCAEH", "note": "[A49I]", "abundance fitness": "-0.076 ± 0.091"}
{"variant": "CAFTHRPCSHPRLEGQEFCIKHILEDKNAPFKQCSYISTKNGKRCPNAKPKPEKKDGVSFCAEH", "note": "[A49K]", "abundance fitness": "-0.321 ± 0.077"}
{"variant": "CAFTHRPCSHPRLEGQEFCIKHILEDKNAPFKQCSYISTKNGKRCPNALPKPEKKDGVSFCAEH", "note": "[A49L]", "abundance fitness": "-0.094 ± 0.044"}
{"variant": "CAFTHRPCSHPRLEGQEFCIKHILEDKNAPFKQCSYISTKNGKRCPNANPKPEKKDGVSFCAEH", "note": "[A49N]", "abundance fitness": "-0.143 ± 0.17"}
{"variant": "CAFTHRPCSHPRLEGQEFCIKHILEDKNAPFKQCSYISTKNGKRCPNAPPKPEKKDGVSFCAEH", "note": "[A49P]", "abundance fitness": "-0.219 ± 0.078"}
{"variant": "CAFTHRPCSHPRLEGQEFCIKHILEDKNAPFKQCSYISTKNGKRCPNAQPKPEKKDGVSFCAEH", "note": "[A49Q]", "abundance fitness": "-0.3 ± 0.066"}
{"variant": "CAFTHRPCSHPRLEGQEFCIKHILEDKNAPFKQCSYISTKNGKRCPNARPKPEKKDGVSFCAEH", "note": "[A49R]", "abundance fitness": "-0.332 ± 0.053"}
{"variant": "CAFTHRPCSHPRLEGQEFCIKHILEDKNAPFKQCSYISTKNGKRCPNATPKPEKKDGVSFCAEH", "note": "[A49T]", "abundance fitness": "-0.005 ± 0.087"}
{"variant": "CAFTHRPCSHPRLEGQEFCIKHILEDKNAPFKQCSYISTKNGKRCPNAVPKPEKKDGVSFCAEH", "note": "[A49V]", "abundance fitness": "0.076 ± 0.078"}
{"variant": "CAFTHRPCSHPRLEGQEFCIKHILEDKNAPFKQCSYISTKNGKRCPNAWPKPEKKDGVSFCAEH", "note": "[A49W]", "abundance fitness": "-0.315 ± 0.067"}
{"variant": "CAFTHRPCSHPRLEGQEFCIKHILEDKNAPFKQCSYISTKNGKRCPNAYPKPEKKDGVSFCAEH", "note": "[A49Y]", "abundance fitness": "-0.261 ± 0.12"}
{"variant": "CAFTHRPCSHPRLEGQEFCIKHILEDKNAPFKQCSYISTKNGKRCPNAAAKPEKKDGVSFCAEH", "note": "[P50A]", "abundance fitness": "-0.213 ± 0.082"}
{"variant": "CAFTHRPCSHPRLEGQEFCIKHILEDKNAPFKQCSYISTKNGKRCPNAACKPEKKDGVSFCAEH", "note": "[P50C]", "abundance fitness": "-0.1 ± 0.074"}
{"variant": "CAFTHRPCSHPRLEGQEFCIKHILEDKNAPFKQCSYISTKNGKRCPNAADKPEKKDGVSFCAEH", "note": "[P50D]", "abundance fitness": "-0.302 ± 0.098"}
{"variant": "CAFTHRPCSHPRLEGQEFCIKHILEDKNAPFKQCSYISTKNGKRCPNAAEKPEKKDGVSFCAEH", "note": "[P50E]", "abundance fitness": "0.095 ± 0.2"}
{"variant": "CAFTHRPCSHPRLEGQEFCIKHILEDKNAPFKQCSYISTKNGKRCPNAAFKPEKKDGVSFCAEH", "note": "[P50F]", "abundance fitness": "-0.135 ± 0.062"}
{"variant": "CAFTHRPCSHPRLEGQEFCIKHILEDKNAPFKQCSYISTKNGKRCPNAAGKPEKKDGVSFCAEH", "note": "[P50G]", "abundance fitness": "-0.211 ± 0.066"}
{"variant": "CAFTHRPCSHPRLEGQEFCIKHILEDKNAPFKQCSYISTKNGKRCPNAAHKPEKKDGVSFCAEH", "note": "[P50H]", "abundance fitness": "-0.135 ± 0.07"}
{"variant": "CAFTHRPCSHPRLEGQEFCIKHILEDKNAPFKQCSYISTKNGKRCPNAAIKPEKKDGVSFCAEH", "note": "[P50I]", "abundance fitness": "-0.184 ± 0.078"}
{"variant": "CAFTHRPCSHPRLEGQEFCIKHILEDKNAPFKQCSYISTKNGKRCPNAAKKPEKKDGVSFCAEH", "note": "[P50K]", "abundance fitness": "-0.176 ± 0.14"}
{"variant": "CAFTHRPCSHPRLEGQEFCIKHILEDKNAPFKQCSYISTKNGKRCPNAALKPEKKDGVSFCAEH", "note": "[P50L]", "abundance fitness": "-0.131 ± 0.069"}
{"variant": "CAFTHRPCSHPRLEGQEFCIKHILEDKNAPFKQCSYISTKNGKRCPNAAMKPEKKDGVSFCAEH", "note": "[P50M]", "abundance fitness": "-0.219 ± 0.13"}
{"variant": "CAFTHRPCSHPRLEGQEFCIKHILEDKNAPFKQCSYISTKNGKRCPNAANKPEKKDGVSFCAEH", "note": "[P50N]", "abundance fitness": "-0.126 ± 0.072"}
